B1: Occludin (Homo sapiens), Q16625-1 (parent)
chain: MSSRPLESPPPYRPDEFKPNHYAPSNDIYGGEMHVRPMLSQPAYSFYPEDEILHFYKWTSPPGVIRILSMLIIVMCIAIFACVASTLAWDRGYGTSLLGGSVGYPYGGSGFGSYGSGYGYGYGYGYGYGGYTDPRAAKGFMLAMAAFCFIAALVIFVTSVIRSEMSRTRRYYLSVIIVSAILGIMVFIATIVYIMGVNPTAQSSGSLYGSQIYALCNQFYTPAATGLYVDQYLYHYCVVDPQEAIAIVLGFMIIVAFALIIFFAVKTRRKMDRYDKSNILWDKEHIYDEQPPNVEEWVKNVSAGTQDVPSPPSDYVERVDSPMAYSSNGKVNDKRFYPESSYKSTPVPEVVQELPLTSPVDDFRQPRYSSGGNFETPSKRAPAKGRAGRSKRTEQDHYETDYTTGGESCDELEEDWIREYPPITSDQQRQLYKRNFDTGLQEYKSLQSELDEINKELSRLDKELDDYREESEEYMAAADEYNRLKQVKGSADYKSKKNHCKQLKSKLSHIKKMVGDYDRQKT

Variants of: B1
Details: with kpcl_human kpcl_human

Effect of a mutation on the interaction, decreasing interaction:
MSSRPLESPPPYRPDEFKPNHYAPSNDIYGGEMHVRPMLSQPAYSFYPEDEILHFYKWTSPPGVIRILSMLIIVMCIAIFACVASTLAWDRGYGTSLLGGSVGYPYGGSGFGSYGSGYGYGYGYGYGYGGYTDPRAAKGFMLAMAAFCFIAALVIFVTSVIRSEMSRTRRYYLSVIIVSAILGIMVFIATIVYIMGVNPTAQSSGSLYGSQIYALCNQFYTPAATGLYVDQYLYHYCVVDPQEAIAIVLGFMIIVAFALIIFFAVKTRRKMDRYDKSNILWDKEHIYDEQPPNVEEWVKNVSAGTQDVPSPPSDYVERVDSPMAYSSNGKVNDKRFYPESSYKSTPVPEVVQELPLTSPVDDFRQPRYSSGGNFETPSKRAPAKGRAGRSKRTEQDHYETDYATGGESCDELEEDWIREYPPITSDQQRQLYKRNFDTGLQEYKSLQSELDEINKELSRLDKELDDYREESEEYMAAADEYNRLKQVKGSADYKSKKNHCKQLKSKLSHIKKMVGDYDRQKT [T403A]
MSSRPLESPPPYRPDEFKPNHYAPSNDIYGGEMHVRPMLSQPAYSFYPEDEILHFYKWTSPPGVIRILSMLIIVMCIAIFACVASTLAWDRGYGTSLLGGSVGYPYGGSGFGSYGSGYGYGYGYGYGYGGYTDPRAAKGFMLAMAAFCFIAALVIFVTSVIRSEMSRTRRYYLSVIIVSAILGIMVFIATIVYIMGVNPTAQSSGSLYGSQIYALCNQFYTPAATGLYVDQYLYHYCVVDPQEAIAIVLGFMIIVAFALIIFFAVKTRRKMDRYDKSNILWDKEHIYDEQPPNVEEWVKNVSAGTQDVPSPPSDYVERVDSPMAYSSNGKVNDKRFYPESSYKSTPVPEVVQELPLTSPVDDFRQPRYSSGGNFETPSKRAPAKGRAGRSKRTEQDHYETDYTTGGESCDELEEDWIREYPPITSDQQRQLYKRNFDAGLQEYKSLQSELDEINKELSRLDKELDDYREESEEYMAAADEYNRLKQVKGSADYKSKKNHCKQLKSKLSHIKKMVGDYDRQKT [T438A]
MSSRPLESPPPYRPDEFKPNHYAPSNDIYGGEMHVRPMLSQPAYSFYPEDEILHFYKWTSPPGVIRILSMLIIVMCIAIFACVASTLAWDRGYGTSLLGGSVGYPYGGSGFGSYGSGYGYGYGYGYGYGGYTDPRAAKGFMLAMAAFCFIAALVIFVTSVIRSEMSRTRRYYLSVIIVSAILGIMVFIATIVYIMGVNPTAQSSGSLYGSQIYALCNQFYTPAATGLYVDQYLYHYCVVDPQEAIAIVLGFMIIVAFALIIFFAVKTRRKMDRYDKSNILWDKEHIYDEQPPNVEEWVKNVSAGTQDVPSPPSDYVERVDSPMAYSSNGKVNDKRFYPESSYKSTPVPEVVQELPLTSPVDDFRQPRYSSGGNFETPSKRAPAKGRAGRSKRTEQDHYETDYTAGGESCDELEEDWIREYPPITSDQQRQLYKRNFDTGLQEYKSLQSELDEINKELSRLDKELDDYREESEEYMAAADEYNRLKQVKGSADYKSKKNHCKQLKSKLSHIKKMVGDYDRQKT [T404A]

From IntAct's records for PubMed 19114660
